Experimental findings from article doi:10.1101/2020.06.17.153486 (bioRxiv, 2020) are described below.

The target in the experiment is SARS-CoV-2 RBD fused with SD1 (SARS-CoV-2, Wuhan-Hu-1 type, UniProt P0DTC2). As to the kind of experiment: ELISA. On the technique in general: ELISA stands for enzyme-linked immunosorbent assay.

B1: mAb 2-4 (antibody, V domains shown)
VH: QVQLVQSGAEVKKPGASVKVSCKASGYTFTGYYMHWVRQAPGQGLEWMGWINPNSGGTNYTQMFQGRVTMTRDTSISTAYMEVSRLRSDDTAVYYCARDRSWAVVYYYMDVWGKGTTVTVSS
VL: QSALTQPPSASGSPGQSVTISCTGTSSDVGGYNYVSWYQQHPGKAPKLMIYEVSKRPSGVPDRFSGSKSGNTASLTVSGLQAEDEADYYCSSYAGSNNLVFGGGTKLTVL
With B1, the binding result was “binds”.
